Results taken from PMC6529188 (Cell, 2019).
Where no end group is shown, it is not given here.

How the values were obtained:
[1] = target: the molecule itself; test: SDS-PAGE without boiling of bicelle-reconstituted protein
cross-linking = target: the molecule itself; test: cross-linking

Row | Protein | stoichiometry N [1] | stoichiometry N (cross-linking)
1 | PGSLSGIIIGVTVAAVVLIVAVFVCKSLLWKKVLP (domain or fragment, UniProt O14763-1 208-242, looked up) [DR5^TMH (human DR5 isoform 1 residues 208-242, C209G), wild type] | 3 | –
2 | PGSLSGIIIGVTVAAVVLIVAVFVCKSLLWKKVLP (domain or fragment, human, UniProt O14763-1 208-242, looked up, also: His6-tagged, active amine groups blocked with Sulfo-NHS Acetate) [His6-tagged DR5^TMH, wild type (for OG-label)] | – | 6
3 | PGSLSGIIIYVTVAAVVLIVAVFVCKSLLWKKVLP (domain or fragment, human, UniProt O14763-1 208-242, looked up, also: His6-tagged, active amine groups blocked with Sulfo-NHS Acetate) [His6-tagged DR5^TMH G217Y mutant (for OG-label)] | – | 3
4 | PGSLSGIIIYVTVAAVVLIVAVFVCKSLLWKKVLP (domain or fragment, human, UniProt O14763-1 208-242, looked up) [DR5^TMH G217Y mutant] | 3 | –
5 | PGSLSGIIIGVTVAAVVLIYAVFVCKSLLWKKVLP (domain or fragment, human, UniProt O14763-1 208-242, looked up, also: His6-tagged, active amine groups blocked with Sulfo-NHS Acetate) [His6-tagged DR5^TMH V227Y mutant (for OG-label)] | – | 6
6 | PGSLSGIIIGVTVAAVVLIYAVFVCKSLLWKKVLP (domain or fragment, human, UniProt O14763-1 208-242, looked up) [DR5^TMH V227Y mutant] | 3 | –
